US20240294622A1 (SUZHOU TRANSCENTA THERAPEUTICS, published 2024)

Legend:
[1] = target: T1, DAN-his (Sinobiological) (human, UniProt P41271 17-181, limits assumed); assay: blocking ELISA: coated BMP4, antibody pre-incubated with human DAN-his, anti-his HRP; blocked ligand BMP4; unit from the axis Concentration(nM) [Continued]
T1 construct: also called DAN (Sinobiological); human DAN-his
T1 sequence (looked up): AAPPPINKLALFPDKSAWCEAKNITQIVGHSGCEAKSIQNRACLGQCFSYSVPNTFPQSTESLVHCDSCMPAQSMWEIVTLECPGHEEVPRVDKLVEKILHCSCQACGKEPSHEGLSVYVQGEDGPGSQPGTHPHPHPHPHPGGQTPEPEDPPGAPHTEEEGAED
Description: (§1) Plates were coated with recombinant human BMP2/4 (0.5 μg/ml) overnight. Then the plates were washed once on an automatic plate washer using PBS+0.1% Tween 20 (Sigma). 100 μl of block solution consisting of PBS+1% BSA+1% normal goat serum+0.5% Tween 20 (Sigma) was added to each well and incubated at room temperature for 2 hours. Then the plates were washed three 3 times. Then 55 ul serial dilutions of chimeric antibodies 36F5 and 55 ul […] of human DAN-his in dilution buffer containing PBS+1% BSA+1% normal goat serum+0.01% Tween 20 separately were mixed and incubated for 1 h at RT before 100 ul of this complex was added to coated plates and allowed to incubate for an additional hour at room temperature. The plates were then washed 3 times and added with 100 ul of anti-his HRP (GenScript) in dilution buffer. Plates were then developed with a TMB solution and stopped by adding stop solution. After wash three times with wash buffer, the plates were read on a plate reader at 450 nm. Also, consistent with previous result, besides blocking gremlin activity, 36F5 could block BMP2/4 binding to DAN protein. (FIGS. 20A and 20B).

[2] = target: T1, DAN-his (Sinobiological); assay: ELISA on coated DAN-his; unit from the axis Ab(nM); panel called FIG. 19C in the text
Description: (§2) Clear polystyrene plates (BEAVER) were coated with 100 μl/well of a 0.5 μg/ml human gremlin (ACRO) and DAN (Sinobiological) in high pH coating buffer overnight at 4° C. Then the plates were washed once on an automatic plate washer using PBS+0.1% Tween 20 (Sigma). 100 μl of block solution consisting of PBS+1% BSA+1% normal goat serum+0.5% Tween 20 (Sigma) was added to each well and incubated at room temperature for 2 hours. Then 100 ul of antibodies (hybridoma or chimeric antibody 36F5, chimeric antibody 67G11, chimeric antibody 42B9) in antibody dilution buffer containing PBS+1% BSA+1% normal goat serum+0.01% Tween 20 starting from 2 μg/ml (13.33 nM) and then 4 fold serial dilution were added to each well of the plate and incubated for 1 hours at room temperature. Afterward the plates were washed three times with 200 ul of PBS+0.1% Tween20 followed by adding 100 μl/well 1:10000 Goat anti mouse IgG-HRP or mouse anti-human IgG-HRP (abcam), and incubate for 1 hour at room temperature. They were then washed 3× with PBS+0.1% Tween20. Finally, 100 μl/well of TMB (InnoReagents) was added to each well and after 2 minutes add 50 ul of stop solution to each well. The plates were read on a Multiscan FC microplate reader (Thermo Scientific) at 450 nm.

[3] = target: T2, HGREM1-His (ACRO) (human, UniProt O60565 25-184); assay: ELISA on coated human Gremlin-his; unit from the axis Ab(nM); panel called FIG. 19C in the text
T2 construct: Lys25-Asp184 of NP_037504 with C-terminal polyhistidine tag (ACRO GR1-H52H3); they are put here; also called hGREM1 (ACRO); human gremlin (ACRO)
T2 sequence: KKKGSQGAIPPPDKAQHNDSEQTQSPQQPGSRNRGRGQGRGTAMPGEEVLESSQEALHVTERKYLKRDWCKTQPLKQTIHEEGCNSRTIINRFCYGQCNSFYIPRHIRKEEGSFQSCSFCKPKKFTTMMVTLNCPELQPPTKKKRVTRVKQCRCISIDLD
Description: as §2

[4] = target: T1, DAN-his (Sinobiological); assay: ELISA on coated DAN-his; unit from the axis label Ab(ug/ml), the table prints none
Description: as §2

[5] = target: T2, HGREM1-His (ACRO); assay: ELISA on coated Gremlin-his; unit from the axis label Ab(ug/ml), the table prints none
Description: as §2

[6] = target: T1, DAN-his (Sinobiological); assay: blocking ELISA: coated BMP2, antibody pre-incubated with human DAN-his, anti-his HRP; blocked ligand BMP2; unit from the axis Concentration(nM)
Description: as §1

[7] = target: T2, HGREM1-His (ACRO); assay: competition ELISA, Gremlin-his 0.25 ug/ml binding to coated FGFR1-Fc
Description: Next, 0.25 μg/ml of gremlin was selected to test the blocking activity. The ability of antibodies to block Gremlin binding to human FGFR1-Fc was examined via ELISA. Plates were coated with recombinant FGFR1-Fc (2 μg/ml) overnight and then serial dilutions of antibodies were incubated with 0.25 μg/ml of human Gremlin-his modified for 1 h at RT before this complex was added to coated plates and allowed to incubate for an additional hour at RT. The plates were then washed and added with anti-his HRP (GenScript). Plates were then developed with a TMB solution and stopped by adding stop solution. The plates were read on a plate reader at 450 nm. […] Humanized anti-GREM1 antibodies provided herein (e.g., Hu14E3, Hu22F1) are expected to show the similar technical effect as their chimeric counterparts in blocking the binding of hGREM1 to FGFR1.

B1: chimeric antibody 36F5 (36F5-chi) (antibody, human IgG1, V domains shown)
VH: QVQLQQSGAELARPGASVKLSCKASGYSFTSSGIGWVKQRSGQGLEWIGEIYPRSGNTYNNEKFKGKATLTADKSSSTVYMELRSLTSEDSAVYFCVREAYSHHYYAMDYWGQGTSVTVFS
VL: DVLMTQTPLSLPVSLGGQASISCRSSQSLLHSNGNTYLEWYLQKPGQSPKLLIYKVSNRFSGVPDRLSGSGSGTDFTLKISRVEAEDLGVYYCFQGSHVPFTFGSGTKLEIN
notes: also called chimeric 36F5
**Q.** B1 was tested. Which IC50 [1] did it give?
**A.** 3.93 nM

**Q.** And the EC50 [2]?
**A.** 0.0211 nM

**Q.** And the EC50 [3]?
**A.** 0.0183 nM

**Q.** What about the EC50 [4] of the same binder?
**A.** 0.02 µg/mL

**Q.** And the EC50 [5]?
**A.** 0.0238 µg/mL

**Q.** What about the IC50 [6] of the same binder?
**A.** 3.29 nM

**Q.** What about the IC50 [7] of the same binder?
**A.** 1.37 nM
